Target: actin filaments (UniProt P68139)
Assay: immunogold electron microscopy

percent of filaments with gold label at the barbed end (immune): 17.4%
Substance: Cap Z(36/32) (from UniProt P13127 1-286; P14315 1-277) (complex)

Reference: publication PMC2114938
